Measurements reported in article PMC12630689 (Nature Communications, 2025).

Target: the molecule itself
Experiment: cryo-EM structure

B1: Shaker-IR-I384R (Shaker zH4 K+ channel with fast inactivation removed, Δ6-46, with the I384R mutation) (natural protein, UniProt P08510 1-655, looked up)
chain: MAAVALREQQLQRNSLDGYGSLPKLSSQDEEGGAGHGFGGGPQHFEPIPHDHDFCERVVINVSGLRFETQLRTLNQFPDTLLGDPARRLRYFDPLRNEYFFDRSRPSFDAILYYYQSGGRLRRPVNVPLDVFSEEIKFYELGDQAINKFREDEGFIKEEERPLPDNEKQRKVWLLFEYPESSQAARVVAIISVFVILLSIVIFCLETLPEFKHYKVFNTTTNGTKIEEDEVPDITDPFFLIETLCIIWFTFELTVRFLACPNKLNFCRDVMNVIDIIAIIPYFITLATVVAEEEDTLNLPKAPVSPQDKSSNQAMSLAILRVIRLVRVFRIFKLSRHSKGLQRLGRTLKASMRELGLLIFFLFIGVVLFSSAVYFAEAGSENSFFKSIPDAFWWAVVTMTTVGYGDMTPVGVWGKIVGSLCAIAGVLTIALPVPVIVSNFNYFYHRETDQEEMQSQNFNHVTSCPYLPGTLGQHMKKSSLSESSSDMMDLDDGVESTPGLTETHPGRSAVAPFLGAQQQQQQPVASSLSMSIDKQLQHPLQQLTQTQLYQQQQQQQQQQQNGFKQQQQQTQQQLQQQQSHTINASAAAATSGSGSSGLTMRHNNALAVSIETDV
  stoichiometry N: 4
